Source: the supplement of paper PMC9112550, “Optimization of the antimicrobial peptide Bac7 by deep mutational scanning” (BMC Biology, 2022)

Test system: Escherichia coli TOP10
Experiment: shrunken log2 fold change of peptide-encoding DNA abundance (4.5 h post-induction vs induction); higher = less antimicrobial activity (less host growth inhibition)
Settings: time post-induction: 4.5 h; library: site-saturation at positions 5, 18, 19, 20
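Also: peptides expressed intracellularly from a pBAD plasmid library in pooled LB shake-flask culture, induced with 0.3% L-arabinose, DNA abundance read by NGS, three biological replicates, DESeq2 with apeglm shrinkage.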

Row | Sequence | shrunken log2 fold change
1 | RRIRVRPPRLPRPRPRPVMSPRP | -0.213
2 | RRIRHRPPRLPRPRPRPQMHPRP | -0.00258
3 | RRIRCRPPRLPRPRPRPARLPRP | 0.395
4 | RRIRIRPPRLPRPRPRPMQRPRP | -0.129
5 | RRIRIRPPRLPRPRPRPITHPRP | -0.329
6 | RRIRVRPPRLPRPRPRPTWGPRP | 0.436
7 | RRIRTRPPRLPRPRPRPWKQPRP | 0.0162
8 | RRIRYRPPRLPRPRPRPKCYPRP | -0.112
9 | RRIRPRPPRLPRPRPRPMMAPRP | 0.0466
10 | RRIRVRPPRLPRPRPRPQQDPRP | 0.151
11 | RRIRIRPPRLPRPRPRPNIYPRP | -0.111
12 | RRIRCRPPRLPRPRPRPAKDPRP | 0.021
13 | RRIRMRPPRLPRPRPRPQFWPRP | 0.245
14 | RRIRRRPPRLPRPRPRPGVPPRP | 0.264
15 | RRIRRRPPRLPRPRPRPAQLPRP | 0.42
16 | RRIRPRPPRLPRPRPRPDTQPRP | -0.371
17 | RRIRSRPPRLPRPRPRPQPKPRP | 0.526
18 | RRIRRRPPRLPRPRPRPKHVPRP | 0.19
19 | RRIRIRPPRLPRPRPRPHFCPRP | -0.139
20 | RRIRQRPPRLPRPRPRPCNLPRP | 0.0555
21 | RRIRERPPRLPRPRPRPDNTPRP | -0.489
22 | RRIRDRPPRLPRPRPRPITVPRP | -0.0979
23 | RRIRYRPPRLPRPRPRPRPEPRP | 0.254
24 | RRIRDRPPRLPRPRPRPNYGPRP | -0.0075
25 | RRIRQRPPRLPRPRPRPIRQPRP | 0.0167

Row | Sequence | shrunken log2 fold change
26 | RRIRIRPPRLPRPRPRPRHTPRP | -0.34
27 | RRIRPRPPRLPRPRPRPAATPRP | 0.809
28 | RRIRIRPPRLPRPRPRPEDHPRP | -0.185
29 | RRIRWRPPRLPRPRPRPGHRPRP | 0.315
30 | RRIRTRPPRLPRPRPRPSDMPRP | 0.185
31 | RRIRERPPRLPRPRPRPTLMPRP | 0.0249
32 | RRIRSRPPRLPRPRPRPVAAPRP | 0.432
33 | RRIRERPPRLPRPRPRPISPPRP | -0.356
34 | RRIRMRPPRLPRPRPRPGLFPRP | 0.236
35 | RRIRERPPRLPRPRPRPHCFPRP | 0.0259
36 | RRIRCRPPRLPRPRPRPLCRPRP | 0.0269
37 | RRIRCRPPRLPRPRPRPQWKPRP | -0.0376
38 | RRIRWRPPRLPRPRPRPEIVPRP | -0.00443
39 | RRIRSRPPRLPRPRPRPANIPRP | -0.484
40 | RRIRLRPPRLPRPRPRPVFGPRP | 0.0724
41 | RRIRTRPPRLPRPRPRPCDEPRP | -0.0429
42 | RRIRARPPRLPRPRPRPWTYPRP | 0.0209
43 | RRIRCRPPRLPRPRPRPPYKPRP | -0.511
44 | RRIRSRPPRLPRPRPRPALMPRP | 0.323
45 | RRIRWRPPRLPRPRPRPLRGPRP | 1.01
46 | RRIRPRPPRLPRPRPRPFAPPRP | 0.14
47 | RRIRKRPPRLPRPRPRPLFHPRP | 0.0214
48 | RRIRERPPRLPRPRPRPKAQPRP | 0.221
49 | RRIRTRPPRLPRPRPRPQAKPRP | -0.147
50 | RRIRMRPPRLPRPRPRPVISPRP | -0.28

Row | Sequence | shrunken log2 fold change
51 | RRIRRRPPRLPRPRPRPFRIPRP | 0.101
52 | RRIRHRPPRLPRPRPRPCNTPRP | -0.416
53 | RRIRKRPPRLPRPRPRPSDFPRP | -0.00266
54 | RRIRPRPPRLPRPRPRPYYRPRP | -0.178
55 | RRIRERPPRLPRPRPRPPVKPRP | 0.0254
56 | RRIRLRPPRLPRPRPRPDLAPRP | -0.062
57 | RRIRVRPPRLPRPRPRPAIRPRP | 0.0362
58 | RRIRIRPPRLPRPRPRPSARPRP | -0.067
59 | RRIRKRPPRLPRPRPRPKKSPRP | 0.575
60 | RRIRIRPPRLPRPRPRPSWGPRP | -0.0874
61 | RRIRIRPPRLPRPRPRPRYAPRP | -0.14
62 | RRIRLRPPRLPRPRPRPKIWPRP | -0.0443
63 | RRIRARPPRLPRPRPRPGDYPRP | 0.226
64 | RRIRARPPRLPRPRPRPDIWPRP | 0.69
65 | RRIRNRPPRLPRPRPRPGNLPRP | -0.186
66 | RRIRHRPPRLPRPRPRPEQHPRP | 1.73
67 | RRIRNRPPRLPRPRPRPVRVPRP | 0.0666
68 | RRIRDRPPRLPRPRPRPYDPPRP | 0.0101
69 | RRIRDRPPRLPRPRPRPEYLPRP | 0.0986
70 | RRIRLRPPRLPRPRPRPRQRPRP | 0.892
71 | RRIRIRPPRLPRPRPRPPVPPRP | 0.233
72 | RRIRFRPPRLPRPRPRPFFHPRP | -0.18
73 | RRIRARPPRLPRPRPRPHENPRP | 0.127
74 | RRIRNRPPRLPRPRPRPQWVPRP | 0.00681
75 | RRIRPRPPRLPRPRPRPEANPRP | 0.473

Row | Sequence | shrunken log2 fold change
76 | RRIRIRPPRLPRPRPRPSDFPRP | -0.611
77 | RRIRPRPPRLPRPRPRPYMCPRP | -0.714
78 | RRIRNRPPRLPRPRPRPSELPRP | -0.135
79 | RRIRLRPPRLPRPRPRPEGRPRP | 1.11
80 | RRIRCRPPRLPRPRPRPMCPPRP | -0.312
81 | RRIRPRPPRLPRPRPRPIWIPRP | -0.308
82 | RRIRWRPPRLPRPRPRPAYVPRP | 0.0521
83 | RRIRSRPPRLPRPRPRPQVMPRP | -0.193
84 | RRIRSRPPRLPRPRPRPIHLPRP | 0.0485
85 | RRIRSRPPRLPRPRPRPGCNPRP | 0.0419
86 | RRIRGRPPRLPRPRPRPKMIPRP | 0.425
87 | RRIRPRPPRLPRPRPRPAGMPRP | -0.00962
88 | RRIRRRPPRLPRPRPRPIKIPRP | -0.0791
89 | RRIRNRPPRLPRPRPRPSYYPRP | -0.877
90 | RRIRGRPPRLPRPRPRPIHDPRP | -0.126
91 | RRIRLRPPRLPRPRPRPSMMPRP | -0.358
92 | RRIRMRPPRLPRPRPRPEFIPRP | 0.01
93 | RRIRGRPPRLPRPRPRPYQNPRP | -0.0136
94 | RRIRWRPPRLPRPRPRPLSSPRP | -0.0482
95 | RRIRVRPPRLPRPRPRPGLWPRP | 0.76
96 | RRIRSRPPRLPRPRPRPEWSPRP | 0.233
97 | RRIRYRPPRLPRPRPRPLDRPRP | -0.182
98 | RRIRKRPPRLPRPRPRPVVDPRP | -0.0213
99 | RRIRERPPRLPRPRPRPPFFPRP | 0.0761
100 | RRIRPRPPRLPRPRPRPSYRPRP | -0.342

Row | Sequence | shrunken log2 fold change
101 | RRIRRRPPRLPRPRPRPCWFPRP | 0.225
102 | RRIRERPPRLPRPRPRPRGDPRP | 0.0639
103 | RRIRHRPPRLPRPRPRPWYRPRP | -0.0954
104 | RRIRQRPPRLPRPRPRPRDGPRP | 0.666
105 | RRIRCRPPRLPRPRPRPVKFPRP | -0.192
106 | RRIRERPPRLPRPRPRPTHKPRP | 0.0682
107 | RRIRPRPPRLPRPRPRPSEGPRP | -0.148
108 | RRIRVRPPRLPRPRPRPKQIPRP | -0.0455
109 | RRIRQRPPRLPRPRPRPNQGPRP | 0.084
110 | RRIRNRPPRLPRPRPRPVETPRP | 0.157
111 | RRIRTRPPRLPRPRPRPVVRPRP | -0.00389
112 | RRIRERPPRLPRPRPRPSQQPRP | 0.0678
113 | RRIRSRPPRLPRPRPRPKLGPRP | 0.281
114 | RRIRHRPPRLPRPRPRPVRQPRP | 0.0261
115 | RRIRNRPPRLPRPRPRPQCQPRP | -0.0453
116 | RRIRRRPPRLPRPRPRPLSFPRP | -0.0589
117 | RRIRFRPPRLPRPRPRPLHNPRP | -0.398
118 | RRIRMRPPRLPRPRPRPEASPRP | 3.48
119 | RRIRTRPPRLPRPRPRPFCVPRP | -0.229
120 | RRIRRRPPRLPRPRPRPIVQPRP | -0.0768
121 | RRIRIRPPRLPRPRPRPPMKPRP | -0.789
122 | RRIRCRPPRLPRPRPRPMDSPRP | -0.142
123 | RRIRTRPPRLPRPRPRPTTMPRP | -0.109
124 | RRIRARPPRLPRPRPRPWPWPRP | 0.261
125 | RRIRPRPPRLPRPRPRPKRDPRP | 0.0476
